# According to the supplement of paper PMC9170038:
# System: K4 kissing-loop RNA reporter
# Test: apparent KD of K4 kissing-loop reporter; higher = weaker reporter binding
# Settings: Eterna round: R107; input ligand: FMN 200 uM
# Method: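 RNA-MaP round R107: designed RNA switches with theophylline, tryptophan, arginine or FMN aptamers are transcribed on-chip within common flanks. They are titrated with a labelled K4 kissing-loop RNA reporter in RNA-MaP buffer (100 mM Tris pH 7.5, 80 mM KCl, 4 mM MgCl2), without ligand or with the indicated ligand. Median apparent KD per design.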
# 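Note: bound reporter read as fluorescence of individual clusters on recovered sequencing chips by microscopy, with normalized cluster intensities fitted with a binding model.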
row,Sequence,apparent KD of K4 kissing-loop reporter [nM]
1,GCAGUGAUGUUGCGAAUCGGCCAUGAUACAGAGGAUAUCGUGCCUUCGAGAAGGUUGUAUAGAGGAUACGAUAUUAUAAAUGACG [Same State FMN A GF 1],353
2,AAGGUCACUACUACAGUGAUGUUGUGGGAGCAGGAUAUGCAGAAAUGCAGAAGGGCUCGCUCCAGGUGACCGAAUGAAACAUUCA [whbob_SS_FMNA__2th174],1500
3,AAUAAUAAUAAAUAAAGAUUGAUGAGCAAACGAGGACCGGUACGGCCGCCACUCGAGUGAUGUUCGAGAAGCUCAUCAAUCAUAA [AK4.8 Exc Tryptophan A],147
4,AACGCUUGAAUAACAAGCGAAAUAAAUUCGCGAGGACCGGUACGGCCGCCACUCGCUAACUGCGAGUGAUGUUCGAUAAUAAAAU [Mat - Mod of OpenEnded 3 - D15],103
5,GAUUUAGAGGCGGCCGCCACUAGUGAUGUUAGUGAUGUUUGAUACUGAAUAUAUCUGCGAGUAGAUAGGACCGGGCCAGAUGGAG [plmfmullin],225
6,AGUAGAGCAUCAGAUACCAGACAGAACUGAUGGUAAGGAGUGAUGUUCCUUAAUCAGCUUGUCCCUUGGCAGCUGAUAAUAGUCA [#13 K4 Theophylline B Same State],423
7,GCUAUGGUAGGAAGGAGCGCUUAUUUAUUUUUACGAGUGAUGUUCGGUAGUAGAUAGUUAAAGCAGGUAGGUCGCCUACUAUAGC [Arginine B K4 16],141
8,UCCUGCAAUCUGCCACGAAAGUGGGUUGAUACCAGAGUCGAAAGACUCCCUUGGCAGCGAGUGAUGUUCGUUGCAGGUAAAUAAA [MatMod 8 - Jieux - Exclusion - Theophylline A],194
9,UGGAUUAGGACGGCCGCCACUACGCUGGCAUGAGUGAUGUUCUAAGGCUUGUCAAAGAUCCAGAGUAGGACCGGGUCCAAUGACU [theeternabot_exclusion_KL_Trp_B_38],293
10,GUUACGCAUGGAAGGAGCGCACUCCGAUUGGGCGACGCAGUGAUGUUGUGGUUCGUUCGAAUGCAGGUAGGUCGCCAUGUGUAAC [Ex Arginine B K4 21],186
11,ACGUGCCCAGUGAUGUUGGAUAAAUAUGAAGGAGCGUGCGAAAGCACAGGUAGGUCGCAUAAUAGCACGAGCCACGAAAGUGGCA [#SwitchBubble 7 #K4Early #Sliding],179
12,AUUUUGGUUUAGAGUGAUGUUCCUUGUGUUCGAGGACCGGUACGGCCGCCACUCGGGUAGAAAAGAAAAGAAAUGUUUGAUUUUU [BDazzled - #10 SS Tryptophan A],251
13,UUUAUGAGGUCGGCCGCCACUGGAUUUAUGUUUGUUUCGUCUGGAUCAAAGUGAUGUUUUGAGUCCAGGACCGGGACAUUUGUUA [whbob_Ex_Tryp_B_w40],85.3
14,AAUAAUCUAGGUGAUACCAGCUCAACAUGAGUGAUGUUCAUGAAAUAAUGUAGAGUUGAGAGCCCUUGGCAGCACCUAGAUAAUA [KL-SSTheoB5],264
15,AUCGUUGUCUGAGGAUAUCGUUUUACUGUAGUGAUGUUACAGAAAAUUCACAUUAUAAUUUCUAUUCGAGAAGGCAGACUACGUA [JR_ExcFMNB_Sub015],134
16,GUAUCGCUAGGAGGAUAUUUCAAUUUGACUCUUUGAGUUUUUACGGAGUGAUGUUCCGUUUUACGGAAAGAAGGCCUAGUGAUAC [FMN B 15],121
17,UGAUAGGACAGAAGGAGCGGGAGUGAUGUUCCCAAAAGUAUAAGGUGUCAAAAGACACCCUCCCAGGUAGGUCGCUGUCCUAUCU,153
18,CGUUCCUCUGUCGAUACCAGCUUCAGUUGGCGGCCAGUGAUGUUGGUAUUGCCGAUGCCAAGCCCUUGGCAGCGAUAUGAGACCC [Aredi],572
19,GGUAGCAUGGCGGCCGCCACUAUCAGGAGUGAUGUUCCAACGCAGAGCUUCAGCUAGUGUGUAAAUAGGACCGGGCCAUGCUACC,414
20,AAUUAAGUGACGGCCGCCACUAGGGUGAUUUUUUUGUUUGAGUGAUGUUUUGAUGUUUGAUUUUGUAGGACCGGGUUAGGUGAUG [juhmullin],332
21,AGUGAUGUGGGAAGGAGCGCUACAUCACUUCAGUGAUGUUGAAGUGAUGAAUUAGUGAUGUAGCAGGUAGGUCGCCUAGAUGUUA [KL-XARG-B12],76.3
22,AUUAUAAAGUCGGCCGCCACUGAGAGUAGUGAUGUUACUCUUUUCCUUUAGAUAUUAUAUUUUAUCAGGACCGGGACAUCAGAUU [JR_ExcTryptoB_Sub020],198

row,Sequence,apparent KD of K4 kissing-loop reporter [nM]
1,GAUACGAAGCAGUGAUGUUGCUUAUGAGAAGGAGCGCACGAAAGUGCAGGUAGGUCGCUCAGCCAUGUGGACGAAAACGUCCACA [whbob_SS_Arginine_A_sa111],90.2
2,UCCUAGGCUCGAAAGAGCCUAGGAUUAUCUCAGGAUAUCCGGAAACGGAGAAGGGAGAAACUAGUGAUGUUAGGGAUUCCCUCUU,421
3,AUUCUGUUUUUGAUGUUUAUUGUAUAAUGGCAGGAUAUCGUAGAAGCGAGAAGGGCUUUUAUGCGUUAUGAGUGAUGUUUGUAGG [eyeefvmullin],373
4,UGAUAGGACAGAAGGAGCGGUAGUGAUGUUACCAAAAGGGUAAGGUGUCAAAAGACACCCUGCCAGGUAGGUCGCUGUCCUAUCU,103
5,UUUAUUAAGACGGCCGCCACUGAUUCAUAGUGAUGUUAUGAUAUAAUCUUAGUGAUAUUUAUAAACAGGACCGGGUCAAUUAUUA [JR_SSTryptoB_Sub026],221
6,UGACUGGACUGAAGGAGCGCUAAAACUCCUAGUGAUGUUGGGAAAACGAGACAAAGUCUCGAGCAGGUAGGUCGCAGUCUAGUCU [ArgBS 22 #SwitchBubble #StaticStem],302
7,GAUUUAGAGGCGGCCGCCACUAGUGAUGUUAGUGAUGUUUGAUAGGGAAUAUAUCAGCGAGUAGAUAGGACCGGGCCAGAUGGAG [gtggbmullin],248
8,CCAAUCAGUUACGAUACCAGUCUAAUAUAUUUGAUCAAAACCCUCGCCGAGUGAUGUUCGGACCCUUGGCAGCGUCUGGGACAGG [fcctmullin],502
9,UUUUAAAUGUCUGAUACCAGAGAAAAUAUAUGUAGUGAUGUUACAUACAAAUUUAAUAAGCUCCCUUGGCAGCAGUAUGAAUUUU [AstrosExc-TheB#15],44.6
10,AAAAUAAAAGCAGUCAUCGGAGUGAUGUUCCGAGGACCGGUACGGCCGCCACUCGACCAGACAAAGUCUGGAUGGCGAGACUGCA [#SwitchBubble 18 #K4Early],83.6
11,CUUGGUCUACGAAGGAGCGCCGUGCAGUGAUGUUGCAGUCAGAUCGAGUGAUGUUUCGGGCGGCAGGUAGGUCGCGUGGCCCUUU [Excusion Arginine B GF 26],633
12,ACAGUACCGGGAAGGAGCGUGAAUGAGAAUGGAUAUAGUGAUGUUAUGUAUACGAACGAAUCGCAGGUAGGUCGCCCGGAUCCCU [SSArgB.aD],563
13,UGACUUGCCUGAGGAUAUCUAGGAUAUGGAUAAAAUAAAAUAAUAAUGGAGUGAUGUUCCAGAAGGAGAGAAGGCAGGUAAGUCU [KL-XFMN-B16 #DoubleAptamer #SwitchBubble],190
14,CAUAAAAGGUGGAAGACGAAUCGGUGUCGCCGAGGACCGGUACGGCCGCCACUCGGUCAUCAAAUCCUUCCCGAGUGAUGUUCGA [theeternabot_sameState_KL_Trp_A_5],382
15,AGCGAGUGAUGUUCGCUGAUCAUGAGAAGUUAGGAUAUAUACUUGCAUAGAAGGAACUAUUUCAUGACAUUAGAGGCAGUAGUUC [FMN A SS t7],159
16,UGAUUUAACUGAAGGAGCGGCAAUUGAUAAGGAAAUAUAGUGAUGUUAUAUAAGAGAGAGAGCCAGGUAGGUCGCAGAGGGAGGA [ExArgB.H],182
17,UUGGCUGGACGGGAUACCAGCCAAAUCGUGUGCUUGGGAUGUCUAAGAGCCAGUGAUGUUGGCCCUUGGCAGCCCUCCCAGCUUG [Inontixe],124
18,CGCAGUGAUGUUGCGAGUAACUACAGGGAAGGAGCGCGGUAGUCCGCAGGUAGGUCGCCCACGCAGUGAUGUUGCGUCAUAGGGU [Exclusion Arg A GF7],110
19,CCUGCGGCUUCCGGCGGGCCCGAUUUAUAAAAGGAUAUGUGCGUACACAGAAGGUUUAACGAGGGACCGAGAGUGAUGUUCUCCU [theeternabot_sameState_KL_FMN_A_33],585
20,UGUCAUUGGUCUGAUACCAGCUUGAUCGGAAAACGAUCUGCUGGAGUGAUGUUCCAAUAAAGCCCUUGGCAGCAGACCGAUGACU [TheoBS 7 #SwitchBubble #StaticStem],854
21,GCAAACCUCAGUGAUGUUGAGUAAUCGGAAGGAGCGCGUGAAAACGCAGGUAGGUCGCCGAUACAUGAAGUAUCUUCGUGUUUGC [Arginine A K4 23],284

# Same assay, conditions: Eterna round: R107; input ligand: arginine 13.2 mM
row,Sequence,apparent KD of K4 kissing-loop reporter [nM]
1,GCAGUGAUGUUGCGAAUCGGCCAUGAUACAGAGGAUAUCGUGCCUUCGAGAAGGUUGUAUAGAGGAUACGAUAUUAUAAAUGACG [Same State FMN A GF 1],384
2,AAGGUCACUACUACAGUGAUGUUGUGGGAGCAGGAUAUGCAGAAAUGCAGAAGGGCUCGCUCCAGGUGACCGAAUGAAACAUUCA [whbob_SS_FMNA__2th174],882
3,AAUAAUAAUAAAUAAAGAUUGAUGAGCAAACGAGGACCGGUACGGCCGCCACUCGAGUGAUGUUCGAGAAGCUCAUCAAUCAUAA [AK4.8 Exc Tryptophan A],134
4,AACGCUUGAAUAACAAGCGAAAUAAAUUCGCGAGGACCGGUACGGCCGCCACUCGCUAACUGCGAGUGAUGUUCGAUAAUAAAAU [Mat - Mod of OpenEnded 3 - D15],66.1
5,GAUUUAGAGGCGGCCGCCACUAGUGAUGUUAGUGAUGUUUGAUACUGAAUAUAUCUGCGAGUAGAUAGGACCGGGCCAGAUGGAG [plmfmullin],154
6,AGUAGAGCAUCAGAUACCAGACAGAACUGAUGGUAAGGAGUGAUGUUCCUUAAUCAGCUUGUCCCUUGGCAGCUGAUAAUAGUCA [#13 K4 Theophylline B Same State],437
7,GCUAUGGUAGGAAGGAGCGCUUAUUUAUUUUUACGAGUGAUGUUCGGUAGUAGAUAGUUAAAGCAGGUAGGUCGCCUACUAUAGC [Arginine B K4 16],112
8,UCCUGCAAUCUGCCACGAAAGUGGGUUGAUACCAGAGUCGAAAGACUCCCUUGGCAGCGAGUGAUGUUCGUUGCAGGUAAAUAAA [MatMod 8 - Jieux - Exclusion - Theophylline A],163
9,UGGAUUAGGACGGCCGCCACUACGCUGGCAUGAGUGAUGUUCUAAGGCUUGUCAAAGAUCCAGAGUAGGACCGGGUCCAAUGACU [theeternabot_exclusion_KL_Trp_B_38],225
10,GUUACGCAUGGAAGGAGCGCACUCCGAUUGGGCGACGCAGUGAUGUUGUGGUUCGUUCGAAUGCAGGUAGGUCGCCAUGUGUAAC [Ex Arginine B K4 21],172
